This is an account of results in patent US20200385441A1 (TECHNION RESEARCH AND DEVELOPMENT FOUNDATION, published 2020).

The experiment deals with T1, human Melanoma-associated Chondroitin Sulfate Proteoglycan (MCSP) (human, UniProt Q6UVK1 30-2322).
T1 construct: whole, on cells; also called CSPG4; NG2
Put plainly: flow cytometry on B16F10-MCSP (C25) cells, detected with Strep-PE or fold-specific anti-H-2K antibody. In general terms: A flow cytometer gives signals particle by particle.

T1 sequence (Q6UVK1 30-2322): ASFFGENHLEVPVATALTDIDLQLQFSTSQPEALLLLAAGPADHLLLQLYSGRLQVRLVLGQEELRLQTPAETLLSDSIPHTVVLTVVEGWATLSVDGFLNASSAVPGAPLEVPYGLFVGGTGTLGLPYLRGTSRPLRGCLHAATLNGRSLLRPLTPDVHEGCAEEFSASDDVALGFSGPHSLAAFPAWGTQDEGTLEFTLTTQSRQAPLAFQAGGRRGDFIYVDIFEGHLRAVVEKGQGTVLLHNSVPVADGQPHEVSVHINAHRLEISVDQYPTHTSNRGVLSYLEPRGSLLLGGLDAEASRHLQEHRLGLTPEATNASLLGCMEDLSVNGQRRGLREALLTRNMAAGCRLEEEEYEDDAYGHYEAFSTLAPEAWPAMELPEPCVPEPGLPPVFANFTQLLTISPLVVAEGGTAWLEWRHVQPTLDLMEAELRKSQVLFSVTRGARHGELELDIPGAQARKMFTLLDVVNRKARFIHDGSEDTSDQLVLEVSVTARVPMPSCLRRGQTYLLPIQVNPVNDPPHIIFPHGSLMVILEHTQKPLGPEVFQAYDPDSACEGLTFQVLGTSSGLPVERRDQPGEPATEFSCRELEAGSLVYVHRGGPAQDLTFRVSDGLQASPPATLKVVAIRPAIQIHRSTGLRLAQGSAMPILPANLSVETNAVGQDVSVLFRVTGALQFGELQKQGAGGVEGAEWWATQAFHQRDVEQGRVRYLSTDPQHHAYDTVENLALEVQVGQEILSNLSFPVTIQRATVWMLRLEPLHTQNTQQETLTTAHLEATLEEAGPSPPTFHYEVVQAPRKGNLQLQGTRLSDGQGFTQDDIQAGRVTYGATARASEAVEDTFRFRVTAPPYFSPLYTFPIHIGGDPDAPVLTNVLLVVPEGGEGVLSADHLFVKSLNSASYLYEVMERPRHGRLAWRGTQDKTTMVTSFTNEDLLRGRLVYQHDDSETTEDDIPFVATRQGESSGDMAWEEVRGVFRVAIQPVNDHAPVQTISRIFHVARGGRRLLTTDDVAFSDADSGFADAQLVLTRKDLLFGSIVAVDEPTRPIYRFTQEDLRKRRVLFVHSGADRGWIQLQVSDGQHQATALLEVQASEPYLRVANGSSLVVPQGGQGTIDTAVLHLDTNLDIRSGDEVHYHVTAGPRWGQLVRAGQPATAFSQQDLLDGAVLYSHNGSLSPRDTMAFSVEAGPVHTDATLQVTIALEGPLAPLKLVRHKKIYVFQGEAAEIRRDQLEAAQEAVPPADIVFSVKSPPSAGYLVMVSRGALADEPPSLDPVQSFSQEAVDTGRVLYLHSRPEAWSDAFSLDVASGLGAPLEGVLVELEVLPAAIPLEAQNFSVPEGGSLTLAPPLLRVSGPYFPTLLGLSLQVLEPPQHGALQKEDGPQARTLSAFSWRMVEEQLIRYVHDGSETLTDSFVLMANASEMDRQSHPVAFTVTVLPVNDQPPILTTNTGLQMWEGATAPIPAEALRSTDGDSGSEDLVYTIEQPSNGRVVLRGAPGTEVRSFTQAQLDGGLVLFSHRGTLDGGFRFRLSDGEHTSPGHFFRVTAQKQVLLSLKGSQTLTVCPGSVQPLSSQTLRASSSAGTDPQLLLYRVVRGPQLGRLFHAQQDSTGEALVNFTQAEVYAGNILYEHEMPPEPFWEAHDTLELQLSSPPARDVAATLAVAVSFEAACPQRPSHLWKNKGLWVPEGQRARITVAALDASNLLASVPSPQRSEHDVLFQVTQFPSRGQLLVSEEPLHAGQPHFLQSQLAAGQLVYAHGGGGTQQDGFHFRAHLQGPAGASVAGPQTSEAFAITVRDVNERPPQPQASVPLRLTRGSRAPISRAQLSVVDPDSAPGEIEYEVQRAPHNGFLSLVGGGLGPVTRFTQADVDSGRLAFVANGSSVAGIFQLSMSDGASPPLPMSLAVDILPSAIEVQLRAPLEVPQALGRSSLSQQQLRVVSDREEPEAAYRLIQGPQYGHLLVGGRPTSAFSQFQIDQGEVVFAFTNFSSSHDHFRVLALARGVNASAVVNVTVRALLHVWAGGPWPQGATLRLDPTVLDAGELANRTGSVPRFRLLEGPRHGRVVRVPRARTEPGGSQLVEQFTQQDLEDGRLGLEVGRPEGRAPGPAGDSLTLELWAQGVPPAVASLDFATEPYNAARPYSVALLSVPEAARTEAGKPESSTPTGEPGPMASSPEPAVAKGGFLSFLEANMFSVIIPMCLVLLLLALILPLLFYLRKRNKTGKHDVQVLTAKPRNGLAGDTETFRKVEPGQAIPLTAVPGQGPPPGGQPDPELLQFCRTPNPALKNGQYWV

B1: BA5 biotinylated peptide-H-2Kb-anti-MCSP scFv fusion protein, 20 amino acid β2M-MHC linker (peptide-MHC)
chain: RTYTYEKLGGGGSGGGGSGGGGSIQKTPQIQVYSRHPPENGKPNILNCYVTQFHPPHIEIQMLKNGKKIPKVEMSDMSFSKDWSFYILAHTEFTPTETDTYACRVKHVSMAEPKTVYWDRDMGGGGSGGGGSGGGGSGGGGSGPHSLRYFVTAVSRPGLGEPRYMEVGYVDDTEFVRFDSDAENPRYEPRARWMEQEGPEYWERETQKAKGNEQSFRVDLRTLLGYYNQSKGGSHTIQVISGCEVGSDGRLLRGYQQYAYDGCDYIALNEDLKTWTAADMAALITKHKWEQAGEAERLRAYLEGTCVEWLRRYLKNGNATLLRTDSPKAHVTHHSRPEDKVTLRCWALGFYPADITLTWQLNGEELIQDMELVETRPAGDGTFQKWASVVVPLGKEQYYTCHVYHQGLPEPLTLRWEPPPSTASGGQVKLQQSGGGLVQPGGSMKLSCVVSGFTFSNYWMNWVRQSPEKGLEWIAEIRLKSNNFGRYYAESVKGRFTISRDDSKSSAYLQMINLRAEDTGIYYCTSYGNYVGHYFDHWGQGTTVTVSSGGGGSGGGGSGGGGSDIELTQSPKFMSTSVGDRVSVTCKASQNVDTNVAWYQQKPGQSPEPLLFSASYRYTGVPDRFTGSGSGTDFTLTISNVQSEDLAEYFCQQYNSYPLTFGGGTKLEIKRAHHHHHHGLNDIFEAQKIEWH
notes: also called BA-biotin fusion molecule; biotinylated ScFv-MHC molecule
As for B1, the binding result was “binds”.
